Reference: patent publication US7214663B2, “Tripeptide prodrug compounds” (Medarex, Inc., priority 2001, dated 2007)
Where two headings read alike, the source gives them in different places.

Tests used:
[1] = tested on: HT-29 (colon carcinoma) cells; conditions: HT29, 48 hours, 3H-thymidine incorporation
Protocol: (§1) Adherent cells, LNCaP (prostate carcinoma), HT-29 (colon carcinoma) and PC-3 (prostate carcinoma), were cultured in DMEM media containing 10% heat inactivated fetal calf serum (FCS). On the day of the study the cells were detached from the plate with a trypsin solution. The collected cells were washed and resuspended at a concentration of 0.25×10^6 cells/ml in DMEM containing 10% FCS. 100 μl of cell suspension were added to 96 well plates and the plates were incubated for 3 hours to allow the cells to adhere. […] The plates were then incubated for 24 hours, pulsed with 10 μl of a 100 μCi/ml ^3H-thymidine and incubated for an additional 24 hours (total incubation time 48 hours). The plates were harvested using a 96 well Harvester (Packard Instruments) and counted on a Packard Top Count Counter. Four parameter logistic curves were fitted to the ^3H-thymidine incorporation as a function of drug molarity using Prism software to determine IC50 values.
(§2) Prostate carcinoma cells, LNCaP and PC-3 cells or colon carcinoma cells HT-29, were incubated with increasing concentration of the indicated compounds for 48 hours and cellular proliferation was measured using the ^3H-thymidine assay.

[2] = tested on: LNCaP (prostate carcinoma) cells; conditions: 48 hours, 3H-thymidine incorporation
Protocol: as §1, §2

[3] = tested on: PC-3 (prostate carcinoma) cells; conditions: PC-3, 48 hours, 3H-thymidine incorporation
Protocol: as §1, §2

[4] = Comparative metabolism in mice, plasma AUC
Protocol: (§3) Plasma was obtained from three individual animals in each group at 5 minutes, 1, 2, 4, or 6 hr.

[5] = SD-MTD studies, 60 days, normal mice (Example 14); conditions: mouse, in vivo
Protocol: In the single dose Maximum Tolerated Dose (SD-MTD) studies, groups of normal mice were administered intravenous bolus doses of the prodrug. The mice were observed daily for 60 days and body weights measured twice weekly. The SD-MTD was estimated to be equal to the highest dose that produced no death in mice after 60 days.

[6] = tested on: HeLa cell anion exchange fraction (F1), trouase; assay: Relative cleavage by HeLa cell anion exchange fraction (F1) versus Suc-βAla-Leu-Ala-Leu standard; assay type: biochemical, human
Protocol: Thirty billion commercially produced HeLa Cells (human cervical carcinoma, Computer Cell Culture Ceizter, Seneffe, Belgium) were homogenized with a sonicator and with a Dounce homogenizer in 108 mL of aqueous lysis solution. The lysis solution contained 0.02% w/v Triton X-100, 0.04% w/v sodium azide, and a cocktail of protease inhibitors (2 tablets/50 mL Complete™, EDTA-free tablets, Roche Molecular Biochemicals). The cell homogenate was centrifuged 30 minutes at 4° C. at 5000×g and the pellet was homogenized in a second 108 mL of lysis solution using a Dounce homogenizer and centrifuged as before. The supernatants were combined and centrifuged for 90 min at 145,000×g at 4° C.
A portion of the ultracentrifugation supernatant was diluted 2-fold with a 20 mM triethanolamine-HCl pH 7.2 buffer containing 0.01% (w/v) Triton X-100 and 0.02% (w/v) sodium azide (equilibration buffer). Thirty mL of the resulting solution, corresponding to approximately 180 mg of protein, was loaded at 4° C. on a 2.6×9.4 cm Source™ 15Q (Amersham Pharmacia Biotech) low pressure anion exchange chromatography column (1 ml/minute). The column was then washed with 250 ml of the equilibration buffer at a flow rate of 1 mL/minute. Proteins were eluted in a NaCl linear concentration gradient (0–0.5 M in the equilibration buffer, total volume of the gradient was 1000 ml) at a flow rate of 3 ml/minute. Two-minute fractions were collected and used for enzyme activity determination using βAla-Leu-Ala-Leu-Dox as the substrate. Its transformation into Ala-Leu-Dox was quantified by reverse phase high performance liquid chromatography utilizing fluorescence detection of the anthracycline moiety. The fractions containing the highest activity levels were pooled (fractions #43–46; ˜0.13 M NaCl), supplemented with protease inhibitors (Complete™, EDTA-free tablets, Roche Molecular Biochemicals), and stored as aliquots at −80° C.
Test compounds were incubated for 2 hr at 37° C. at a concentration of 12.5 μg/mL with HeLa cell anion exchange fraction (F1), as prepared in Example 1(c). Following incubation, three volumes of acetonitrile were added to stop the reaction and remove protein from the mixture. The sample was centrifuged at 18,000 g for 5 minutes and 100 μL of supernatant was mixed with 300 μL of water prior to analysis by HPLC. For HPLC analysis 50 μL of sample was injected on a 4.6×50 mm 2μ TSK Super-ODS chromatography column at 40° C. and eluted with a 3 minute linear gradient from 26% to 68% acetonitrile in aqueous 20 mM ammonium acetate pH 4.5 buffer at 2 mL/min. Detection was by fluorescence using an excitation wavelength of 235 nm and an emission wavelength of 560 nm.
the amount of cleavage of each test compound was compared to the amount of a standard Suc-βAla-Leu-Ala-Leu-therapeutic agent conjugate cleaved by F1 under the same conditions. The therapeutic agent in the standard (Dox or Dnr) was the same as in the test compound. Table 3 provides the relative cleavage rates of several tripeptide prodrugs.

[7] = Metabolism and clearance of Suc-Met-Ala-Leu-Dox in mice (plasma, urine); assay type: in vivo, mouse; conditions: mouse, in vivo, iv, 120 mg/kg
Protocol: Plasma samples were obtained at 1 or 4 hours, and urine was collected at 2 and 24 hours post administration. Levels of the prodrug and metabolites were measured by LC-MS with UV detection of doxorubicin.

[8] = mouse, in vivo
[9] = tested on: healthy young female normal mice; conditions: Example 7
[10] = Repeat-dose tolerability / repeat dose MTD in tumor bearing mice; assay type: in vivo, mouse; conditions: mouse, in vivo, Table 12, re-analyzed
Source text: In one study, one animal in each dose group (n=8) was terminated as a possible drug-related toxicity death late in the study, at Days 58 and 57 in the low and high dose-groups respectively. The safety of the compound was evidenced by little body weight loss in either the high or low dose groups (less than 5% of the initial weight) during the 60-day observation period, in surviving animals (FIG. 14). In the other study, both the high and low dose were well tolerated. Only one animal in the high dose group (n=10) had over 15% of body weight loss at the end of the study (Day 61).
In repeat-dose studies in tumor bearing mice, groups of ten mice were dosed with various amounts of prodrug for a total of five doses at either five day or 1 week intervals. […] Thus, the prodrugs permit a much greater amount of therapeutic agent to be delivered to the body as a whole and thus to the vicinity of the target cell.

in vivo = conditions: female, ICR, mouse, iv, 100 umol/kg
Protocol: as §3

[11] = single IV bolus approximately 100 μmol/Kg, ICR mice
[12] = intravenous, SD MTD (mg/kg), value in parentheses (doxorubicin equivalent dose), Table 11, doses as first stated
[13] = intravenous, SD MTD (mg/kg), value in parentheses: doxorubicin equivalent dose, Table 12, re-analyzed data and new data
[14] = intravenous, Table 12, re-analyzed data and new data, read-out: SD MTD
[15] = iv, Table 11, doses as first stated, intravenous bolus, 60 days, read-out: SD MTD

SMILES: CC[C@H](C)[C@H](NC(=O)CCC(=O)O)C(=O)N[C@@H](C)C(=O)N[C@@H](CC(C)C)C(=O)N[C@H]1C[C@H](O[C@H]2C[C@](O)(C(=O)CO)Cc3c(O)c4c(c(O)c32)C(=O)c2c(OC)cccc2C4=O)O[C@@H](C)[C@H]1O [Suc-Ile-Ala-Leu-Dox]
- IC50 [1]: 47 µM
- IC50 [2]: 1.1 µM
- IC50 [3]: 88 µM
- AUC ([4]; female, ICR, mouse, in vivo, iv, 100 umol/kg): 452 µM·h
- Dox, area under the plasma concentration time curve ([4]; single IV bolus approximately 100 μmol/Kg of prodrug, ICR mice): 0.9 µM·h
- AL-Dox or AG-DOX, area under the plasma concentration time curve [4, 11]: 1.0 µM·h
- L-Dox or G-Dox, area under the plasma concentration time curve [4, 11]: 6.2 µM·h

SMILES: COc1cccc2c1C(=O)c1c(O)c3c(c(O)c1C2=O)C[C@@](O)(C(=O)CO)C[C@@H]3O[C@H]1C[C@H](NC(=O)[C@H](CC(C)C)NC(=O)[C@H](Cc2ccc(O)cc2)NC(=O)[C@H](CC(C)C)NC(=O)CCC(=O)O)[C@H](O)[C@H](C)O1 [Suc-Leu-Tyr-Leu-Dox]
- IC50 [1]: 42 µM
- IC50 [2]: 9.4 µM
- IC50 [3]: 51 µM
- MTD at 60 day [5, 12]: > 70 mg/kg
- MTD at 60 day [5, 13]: > 70 mg/kg
- MTD at 60 day [5, 14]: > 128 mg/kg
- MTD at 60 day [5, 15]: > 128 mg/kg

SMILES: COc1cccc2c1C(=O)c1c(O)c3c(c(O)c1C2=O)C[C@@](O)(C(=O)CO)C[C@@H]3O[C@H]1C[C@H](NC(=O)[C@H](CC(C)C)NC(=O)[C@H](C)NC(=O)[C@H](CCSC)NC(=O)CCC(=O)O)[C@H](O)[C@H](C)O1 [Suc-Met-Ala-Leu-Dox]
- Relative Cleavage % ([6]; 2 hr at 37° C., 12.5 μg/mL, HeLa F1, relative to Suc-βAla-Leu-Ala-Leu-(Dox or Dnr) standard): 49%
- Relative Rate of Cleavage ([6]; relative to Suc-βAla-Leu-Ala-Leu-Dox = 100 (Tables 11 and 12)): 49
- MTD at 60 day [5, 12]: 42 mg/kg
- MTD at 60 day [5, 13]: 42 mg/kg
- MTD at 60 day [5, 14]: 70 mg/kg
- MTD at 60 day [5, 15]: 70 mg/kg
- Plasma 4 hr, percent of administered dose [7]: ~0.001%
- Urine 2 hr, percent of administered dose [7]: 6.6%
- MTD at 28 day ([8]; intravenous): ~40 mg/kg
- MTD at 28 day ([8]; iv): ~71 mg/kg
- dose of doxorubicin at single dose MTD, fold higher than with doxorubicin alone [9]: about 1.5 fold
- acute signs of toxicity ([9]; single intravenous 24-120 mg/kg): no acute signs of toxicity

SMILES: COc1cccc2c1C(=O)c1c(O)c3c(c(O)c1C2=O)C[C@@](O)(C(=O)CO)C[C@@H]3O[C@H]1C[C@H](NC(=O)[C@H](CC(C)C)NC(=O)[C@H](C)NC(=O)[C@H](CC(C)C)NC(=O)CCNC(=O)CCC(=O)O)[C@H](O)[C@H](C)O1 [Suc-βAla-Leu-Ala-Leu-Dox, reference compound]
- MTD ([5]; SD MTD (mg/kg), value in parentheses (doxorubicin equivalent dose), Table 11, doses as first stated): 42 mg/kg
- MTD ([5]; SD MTD (mg/kg), value in parentheses: doxorubicin equivalent dose, Table 12, re-analyzed data and new data): 28 mg/kg
- MTD ([5]; Table 12, re-analyzed data and new data, read-out: SD MTD): 50 mg/kg
- MTD [5, 15]: 75 mg/kg
- MTD ([10]; Repeat Dose MTD (mg/kg), value in parentheses: doxorubicin equivalent dose, Q 5 D × 5 or Q 7 D × 5): 32 mg/kg
- MTD ([10]; Q 5 D × 5 or Q 7 D × 5 as given per compound, read-out: Repeat Dose MTD): 57 mg/kg
- AUC (in vivo): 806 µM·h
